Source: US10865391B2, “Glutamate dehydrogenase mutants and their application in preparation of L-phosphinothricin” (ZHEJIANG UNIVERSITY, priority 2018, dated 2020)

Assays:
Format in all cases: biochemical
[1] = Standard enzyme activity measurement toward PPO, crude enzyme (per volume fermentation broth); settings: for Enzyme activity (per volume fermentation broth): 100 mM substrate, 10 mM coenzyme, 500 mM NH4+, pH 7.5, 35° C., 10 min; for Enzyme activity (per volume fermentation broth), times higher than that of wild type: versus wild type PpGluDH
Protocol: The preserved recombinant E. coli is streaked onto the plate for activation. Single colonies are picked and inoculated into 5 mL LB liquid medium containing 50 μg/mL kanamycin and cultured at 37° C. for 12 h. The culture is transferred to 50 mL fresh LB liquid medium containing 50 μg/mL kanamycin at a 2% inoculum, and then incubated at 37° C. until the OD600 reaches 0.6; after that, add IPTG to a final concentration of 0.5 mM, and then proceed with induction culture under the temperature of 18° C. for 16 h.
After the cultivation, the culture is centrifuged at 10000 rpm for 10 min; discard supernatant, and collect cells. The harvested cells are washed for 2 times using pH 7.5 50 mM phosphate buffer. After that, the cells are re-suspend into the pH 7.5 phosphate buffer and disrupted ultrasonically (400W for 30 times, Ultrasonic time is 3 s, and the interval is 7 s). The cell disrupted solution is centrifuged at 12000 g for 5 min at 4° C. to remove the precipitate, and the supernatant obtained is the crude enzyme containing recombinant glutamate dehydrogenase
(§1) The standard enzyme activity measurement system: Appropriate amount of enzyme, 100 mM substrate, 10 mM coenzyme (NADH or NADPH), 500 mM NH4^+ ((NH4)2SO4); total system volume is up to 400 μL; reaction medium is pH 7.5 phosphate buffer. 35° C. reaction for 10 min; after that, add 40 uL 5 M NaOH to terminate reaction.
(§2) Definition of enzyme activity unit: The quantity of enzyme as required by generation of 1 μmol L-phosphinothricin per minute under standard reaction conditions.
Proceed with induction culture of constructed mutants, and prepare crude enzyme solution.

[2] = Specific activity of pure enzyme toward PPO; settings: for Specific activity of pure enzyme: purified protein; for Specific activity, times higher than that of wild type: versus wild type PpGluDH
Protocol: The recombinant E. coli carrying glutamate dehydrogenase gene used in the present invention is constructed and kept by our laboratory. The vector used is pET-28a(+), and the host used is E. coli BL21(DE3). NI-NTA resin (HisPur™ Ni-NTA Resin) used for protein purification is purchased from Thermo Scientific™; protein purification is carried out in reference to specifications.
as §1, §2
Meanwhile, specific activity of pure enzyme obtained through purification has also been measured. As measured, specific activity of pure protein of wild type PpGluDH is 0.31 U/mg; specific activity of PpGluDH-A167G is 38.13 U/mg, which is 123 times higher than that of wild type; specific activity of PpGluDH-V378A is 35.96 U/mg, which is 116 times higher than that of wild type.

[3] = Preparation of L-phosphinothricin by coupling glutamate dehydrogenase with glucose dehydrogenase; settings: 500 mM PPO, NADP+, 35° C., pH 7.5, 6 h
Protocol: (§3) The reaction process is monitored by measuring the concentration of substrate in the reaction solution applying high-performance liquid chromatography (HPLC). HPLC analysis method is stated as follows: column model: Pntulips® QS-C18, 5 μm, 4.6 mm×250 mm. Mobile phase: 50 mM (NH4)2HPO4, added 1% of 10% tetrabutyl ammonium hydroxide, adjusted to pH 3.6 with 50% phosphoric acid(mass fraction), added 8% acetonitrile. Detective wave length is 205 nm; flow rate is 1.0 mL/min. Column temperature is 40° C.
(§4) The enantiomeric excess and concentration of product are determined through pre-column derivatization high-performance liquid chromatography; the specific analysis method is stated as follows:
(§5) (1) HPLC condition: column model: Pntulips® QS-C18, 5 μm, 4.6 mm×250 mm. Mobile phase: 50 mM Sodium acetate: Acetonitrile=8: 0.5 (v/v). Detective wave length: 338 nm. Flow rate: 0.85 mL/min. Column temperature: 30° C.
(§6) (2) Derivatization reagent: Weigh 0.03 g phthalaldehyde and 0.1 g N-acetyl-L-cysteine, and use 400 uL ethanol for solubilization; after that, add 4 mL 0.2 mol/L borate buffer (pH 9.8) and shake for dissolution prior to storage in the fridge under the temperature of 4° C. (no more than 4 days).
(§7) (3) Derivatization reaction and analysis: Add 150 μL derivatization reagent into 100 μL sample, mix and incubate at 25° C. for 5 min, and then inject 20 μL for analysis.
Culture recombinant E. coli expressing glutamate dehydrogenase (PpGluDH) and glucose dehydrogenase (BsGDH-2M, SEQ ID NO. 21) with method in Step 3 of Embodiment 1; proceed with centrifugal collection of cells and ultrasonic cell disruption to prepare crude enzyme solution.
(§8) The final volume of the reaction is 30 mL; each sample contains 500 mM substrate PPO, 600 mM glucose, 250 mM (NH4)2SO4 and 0.5 mM NADP^+. Concentration of glutamate dehydrogenase cells (dry weight) is 1.0 g/L; concentration of glucose dehydrogenase cells (dry weight) is 1.25 g/L. Use water bath to control the reaction temperature at 35° C.; titrate ammonia to control pH at 7.5 during the reaction process. Use non-chiral HPLC to determine residual concentration of PPO after reaction for 6 h; meanwhile, use pre-column derivatization HPLC to determine the concentration and ee value of formed L-phosphinothricin.
as §8, with “0.5” for “1.0”
as §8, with “NAD^+.” for “NADP^+.”, “1.25” for “1.0”
The final volume of the reaction is 30 mL; each sample contains 500 mM substrate PPO, 600 mM glucose, 250 mM (NH4)2SO4 and 0.5 mM NAD^+. Concentration of glutamate dehydrogenase cells (dry weight) is 1.25 g/L; concentration of glucose dehydrogenase cells (dry weight) is 1.25 g/L. Use water bath to control the reaction temperature at 35° C.; titrate ammonia to control pH at 7.5 during the reaction process. […]

[4] = Preparation of L-phosphinothricin by coupling glutamate dehydrogenase with alcohol dehydrogenase; settings: 500 mM PPO, 750 mM isopropanol, TBADH, NADP+, GluDH cells 0.5 g/L, 35° C., pH 7.5, 12 h
Protocol: as §3, §4, §5, §6, §7
Culture recombinant E. coli expressing glutamate dehydrogenase (LsGluDHp-A175G, SEQ ID NO. 7) and alcohol dehydrogenase (TBADH, WP_041589967.1) with method in Step 3 of Embodiment 1; proceed with centrifugal collection of cells and ultrasonic cell disruption to prepare crude enzyme solution.
The final volume of the reaction is 30 mL; each sample contains 500 mM substrate PPO, 750 mM isopropanol, 250 mM (NH4)2SO4 and 0.5 mM NADP^+. Concentration of glutamate dehydrogenase cells (dry weight) is 0.5 g/L; concentration of alcohol dehydrogenase cells (dry weight) is 2.5 g/L. Use water bath to control the reaction temperature at 35° C.; titrate ammonia to control pH at 7.5 during the reaction process. […]

Row | Molecule | Enzyme activity (per volume fermentation broth) ([1]; toward PPO, crude enzyme) [U/mL] | Enzyme activity (per volume fermentation broth), times higher than that of wild type ([1]; toward PPO) [times] | Specific activity of pure enzyme [2] [U/mg] | Specific activity, times higher than that of wild type [2] [times] | concentration of formed L-phosphinothricin ([3]; GluDH cells 1.0 g/L) [g/L] | residual PPO ([3]; GluDH cells 1.0 g/L) [mM] | substrate conversion ([3]; GluDH cells 1.0 g/L) [%] | Fold change [1] | Enzyme activity of mutants (U/mL) ([1]; toward PPO, crude enzyme, standard system, N.D. = no detectable activity) | concentration of formed L-phosphinothricin ([3]; GluDH cells 0.5 g/L) [g/L] | residual PPO ([3]; GluDH cells 0.5 g/L) [mM] | substrate conversion ([3]; GluDH cells 0.5 g/L) [%] | concentration of formed L-phosphinothricin [4] [g/L] | residual PPO [4] [mM] | substrate conversion [4] [%]
1 | PpGluDH-A167G: PpGluDH mutant, alanine 167 to glycine, SEQ ID NO. 1 (protein, Pseudomonas putida glutamate dehydrogenase mutant) MSTMIESVDNFLARLKQRDPGQPEFHQAVEEVLRTLWPFLEANPHYLQSGILERMVEPERAVLFRVSWVDDQGKVQVNRGYRIQMSSAIGPYKGGLRFHPSVNLSVLKFLAFEQVFKNSLTSLPMGGGKGGSDFDPKGKSDAEVMRFCQAFMSELYRHIGADCDVPGGDIGVGAREIGFMFGQYKRLANQFTSVLTGKGMTYGGSLIRPEATGYGCVYFAEEMLKRQDKRIDGRRVAVSGSGNVAQYAARKVMDLGGKVISLSDSEGTLYAEAGLTDAQWDALMELKNVKRGRISELAGQFGLEFRKGQTPWSLPCDIALPCATQNELGAEDARTLLRNGCICVAEGANMPTTLEAVDIFLDAGILYAPGKASNAGGVAVSGLEMSQNAMRLLWTAGEVDSKLHNIMQSIHHACVHYGEEADGRINYVKGANIAGFVKVADAMLAQGVV | 14.85 | 135 | 38.13 | 123 | 83.7 | 0.9 | 99.8 |  |  |  |  |  |  |  | 
2 | PpGluDH-V378A: PpGluDH mutant, valine 378 to alanine, SEQ ID NO. 2 (protein, Pseudomonas putida glutamate dehydrogenase mutant) MSTMIESVDNFLARLKQRDPGQPEFHQAVEEVLRTLWPFLEANPHYLQSGILERMVEPERAVLFRVSWVDDQGKVQVNRGYRIQMSSAIGPYKGGLRFHPSVNLSVLKFLAFEQVFKNSLTSLPMGGGKGGSDFDPKGKSDAEVMRFCQAFMSELYRHIGADCDVPAGDIGVGAREIGFMFGQYKRLANQFTSVLTGKGMTYGGSLIRPEATGYGCVYFAEEMLKRQDKRIDGRRVAVSGSGNVAQYAARKVMDLGGKVISLSDSEGTLYAEAGLTDAQWDALMELKNVKRGRISELAGQFGLEFRKGQTPWSLPCDIALPCATQNELGAEDARTLLRNGCICVAEGANMPTTLEAVDIFLDAGILYAPGKASNAGGAAVSGLEMSQNAMRLLWTAGEVDSKLHNIMQSIHHACVHYGEEADGRINYVKGANIAGFVKVADAMLAQGVV | 13.3 | 121 | 35.96 | 116 | 81.9 | 1.2 | 99.8 |  |  |  |  |  |  |  | 
3 | LsGluDHp-A175G: LsGluDHp mutant A175G, SEQ ID NO. 7 (protein, Lysinibacillus sphaericus glutamate dehydrogenase mutant) MTITTVSNEQLAKEYVDGVFEQLKQQNCHQAEFLQAAEEIFISLVPVFVQHPEYIKANILSRIVEPDRIISFRVAWQDDHNQVQVNRGYRVQYSNVMGPYKGGLRFHPSVNESIIKFLGFEQIFKNALTGQPIGGGKGGSNFDPKGKSDSEIMRFCQAFMTELYRHIGPDVDVPGGDIGVGAREVGYLWGQYKRLTKASESGVLTGKTPGYGGSLARKEATGYGTVYFVNEMLKDVNDSFEGKTVVVSGSGNVSTYAIEKAQQYGAKVVACSDSSGYIYDPEGLDLDVIKEIKEVKGDRISTYVSYRPNATFTNGCTGIWTIPCDIALPCATQNEINGESARTLISNGVKAIGEGANMPSDLEAINEFLNAGVLFGPAKAANAGGVAVSALEMAQDSSRVFWSFEEVDAKLHQIMKDIYSDSKAAAEKYGFPGNLVMGANIAGFIKVADGMLTEGIY |  |  |  |  |  |  |  | 1641 | 34.47 | 82.4 | 0 | 100 | 81.3 | 1.3 | 99.7
